The test system of data set [1] is Plexin B1. In words: Ka (µM^-1s^-1). The text has this:
(§1) Table printed on a drawing sheet, FIG. 2
Head of the field: Ka (µM^-1s^-1)
(§2) The sequences from top to bottom are SEQ ID NO: 40, SEQ ID NO: 31, SEQ ID NO: 37, SEQ ID NO: 30, SEQ ID NO: 38, and SEQ ID NO: 39.
(§3) First copying reader's note: The sequences are only the variable region of the cyclic scaffold drawn in panel b, DW(Variable region)CS-NH2 closed by a thioether bridge.
(§4) Where the first naming reader finds the target: description_of_the_figure: the respective amino acid sequence of the cyclic peptides and their binding affinity to Plexin B1

Data set [2] deals with Plexin B1. Nature of the data set: Kd (s^-1).
Description: as §1
Head of the field: Kd (s^-1)
as §2, §3, §4

Data set [3] deals with Plexin B1. In words: KD (nM).
Description: as §1
(§5) Head of the field: KD (nM)
as §2, §3, §4

Data set [4] deals with T1, mouse Plexin B1 and Semaphorin 4D (Mus musculus, UniProt Q8CJH3).
T1 sequence (Q8CJH3 20-535 limits assumed): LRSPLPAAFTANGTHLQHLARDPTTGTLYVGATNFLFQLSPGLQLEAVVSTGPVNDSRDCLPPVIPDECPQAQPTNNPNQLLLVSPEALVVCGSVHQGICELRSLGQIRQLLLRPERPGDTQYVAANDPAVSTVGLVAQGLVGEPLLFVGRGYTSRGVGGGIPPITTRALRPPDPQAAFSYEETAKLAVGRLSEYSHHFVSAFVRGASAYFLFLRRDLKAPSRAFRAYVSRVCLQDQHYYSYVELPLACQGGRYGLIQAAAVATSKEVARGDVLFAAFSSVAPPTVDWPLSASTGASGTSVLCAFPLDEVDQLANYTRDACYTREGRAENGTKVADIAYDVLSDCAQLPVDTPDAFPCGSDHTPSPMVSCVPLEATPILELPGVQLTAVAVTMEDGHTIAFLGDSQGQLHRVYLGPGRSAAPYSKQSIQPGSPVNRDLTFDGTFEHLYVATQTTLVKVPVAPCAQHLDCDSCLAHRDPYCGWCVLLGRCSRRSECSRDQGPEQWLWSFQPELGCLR
In words: in vitro pulldown assay of mouse Plexin B1 / Semaphorin 4D interaction (AP activity). The data set is classed as biochemical. The note with it: compared with cyclic peptide P6. The procedure:
The effect of the cyclic peptides shown in FIG. 2c on protein-protein interaction (PPI) of Plexin B1 and Semaphorin 4D was studied by in vitro pulldown assay (FIG. 3). • 1. Plexin B1 or Plexin A2 was immobilized on Sepharose beads. • 2. A cyclic peptide that bound to Plexin B1, a negative control peptide, or dimethylsulfoxide (DMSO) was added to Plexin-B1-immobilized beads. • 3. An alkali phosphatase (AP)-fused protein of Semaphorin 4D or Semaphorin 6A was added. • 4. After washing of the resulting beads, an increase in absorbance of the sample was measured at 405 nm to determined AP activity.
High AP activity relates to high interaction (5) between Semaphorin and Plexin and low AP activity relates to […] interaction (6) between Semaphorin and Plexin.

A short description of data set [5]: stability test with serum protease. The note with it: degradation by serum protease. The data set is classed as in vitro ADME. The procedure:
A stability test, with serum protease, of the cyclic peptide P6 and the cyclic peptide having an intramolecular lactam bridge structure was performed (FIG. 11c).

The subject of data set [6] is Plexin B1. Nature of the data set: kd (s^-1). The procedure: (§6) Table printed on a drawing sheet, FIG. 11
Head of the field: kd (s^-1)
(§7) First copying reader's note: Panel a of FIG. 11; the BC8 row is highlighted with a frame on the sheet.
(§8) Where the first naming reader finds the target: passage: its binding affinity to Plexin B1 was analyzed by surface resonance plasmon (SPR) (FIG. 11a)

Data set [7] deals with Plexin B1. In words: KD (nM). Here is the method: as §6, §5, §7, §8
This is another data set of the same source.

For data set [8], the target named is Plexin B1. Nature of the data set: KD (nM).
Description: (§9) Table printed on a drawing sheet, FIG. 13
as §5
(§10) First copying reader's note: Panel b of FIG. 13; panel a is a bar chart and is left out.
The source holds these as a separate data set.

Data set [9] concerns Plexin B1. In words: ka (μM^-1s^-1).
Description: as §9
Head of the field: ka (μM^-1s^-1)
as §10

The test system of data set [10] is Plexin B1. In words: kd (ms^-1).
Description: as §9
Head of the field: kd (ms^-1)
as §10

Data set [11] deals with T2, human Plexin B1 (human, UniProt O43157 20-535, limits assumed).
T2 sequence (looked up): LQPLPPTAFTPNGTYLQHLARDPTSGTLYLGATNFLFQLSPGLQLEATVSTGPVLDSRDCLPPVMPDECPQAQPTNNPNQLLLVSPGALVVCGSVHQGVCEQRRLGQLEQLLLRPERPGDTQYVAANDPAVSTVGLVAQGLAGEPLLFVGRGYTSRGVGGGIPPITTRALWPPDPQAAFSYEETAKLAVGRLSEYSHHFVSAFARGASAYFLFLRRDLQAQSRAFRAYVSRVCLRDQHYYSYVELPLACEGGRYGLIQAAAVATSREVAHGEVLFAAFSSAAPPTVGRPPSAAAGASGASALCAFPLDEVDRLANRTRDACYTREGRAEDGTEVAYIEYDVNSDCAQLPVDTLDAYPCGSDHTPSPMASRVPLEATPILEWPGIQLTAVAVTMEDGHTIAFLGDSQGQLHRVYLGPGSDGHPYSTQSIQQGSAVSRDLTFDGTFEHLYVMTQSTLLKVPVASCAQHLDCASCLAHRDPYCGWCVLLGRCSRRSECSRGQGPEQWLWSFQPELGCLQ
In words: SPR.

Data set [12] concerns the target T2, human Plexin B1. Nature of the data set: SPR. The source holds these as a separate data set.
In data set [13] the target is T3, mouse Plexin B1 (mouse, UniProt Q8CJH3 20-535, limits assumed).
T3 sequence (looked up): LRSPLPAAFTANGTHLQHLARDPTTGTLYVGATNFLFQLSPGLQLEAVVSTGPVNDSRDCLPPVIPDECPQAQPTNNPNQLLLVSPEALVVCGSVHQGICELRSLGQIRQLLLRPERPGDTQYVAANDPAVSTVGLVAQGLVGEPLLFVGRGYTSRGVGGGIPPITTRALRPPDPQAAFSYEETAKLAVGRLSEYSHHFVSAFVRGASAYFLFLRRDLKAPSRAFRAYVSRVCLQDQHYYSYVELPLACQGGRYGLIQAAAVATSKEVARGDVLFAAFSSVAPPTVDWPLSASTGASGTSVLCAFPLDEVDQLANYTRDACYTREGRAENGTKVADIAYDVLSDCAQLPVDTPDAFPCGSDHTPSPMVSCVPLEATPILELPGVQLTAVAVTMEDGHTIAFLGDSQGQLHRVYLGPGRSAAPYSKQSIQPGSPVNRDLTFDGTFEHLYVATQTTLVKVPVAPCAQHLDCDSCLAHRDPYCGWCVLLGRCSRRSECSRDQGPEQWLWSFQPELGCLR
Nature of the data set: SPR.

Data set [14] deals with T2, human Plexin B1. Nature of the data set: SPR. This is another data set of the same source.

Read-outs that look alike come from different tables or passages of the source. Positions of bridges follow the written chain, without caps; N, C: chain ends. Non-standard residues stand in square brackets, D forms with d. Residues, ends and D or L forms follow the SMILES beside them. No end group written: not given here.

This note sets out measurements from US11975040B2, “Plexin binding regulator” (The University of Tokyo, priority 2016, dated 2024).

For the molecule NGTLSWQTYSHL [P8], in data set [1], the “Ka” value was found to be 53000 M⁻¹ s⁻¹. Further, the “Kd” value in [2] was determined as 0.037 s⁻¹; in data set [3], 689 nM.
For the molecule `CC(C)[C@@H]1NC(=O)[C@H](Cc2ccc(O)cc2)NC(=O)[C@H](Cc2ccccc2)NC(=O)[C@H]([C@@H](C)O)NC(=O)CNC(=O)[C@H]([C@@H](C)O)NC(=O)[C@H](Cc2c[nH]c3ccccc23)NC(=O)[C@H](CCCNC(=N)N)NC(=O)[C@H](CC(=O)O)NC(=O)[C@H](Cc2ccc(O)cc2)NC(=O)[C@H](Cc2ccccc2)NC(=O)[C@H](Cc2c[nH]c3ccccc23)NC(=O)[C@H](CCCNC(=N)N)NC(=O)[C@@H](Cc2c[nH]c3ccccc23)NC(=O)CSC[C@@H](C(=O)NCC(N)=O)NC1=O` [mp6-2, wRWFYDRWTGTFYVC] ({CH2CO}-[dW]RWFYDRWTGTFYVCG-NH2; thioether N-15), the “interaction inhibiting activity between mouse Plexin B1 and Semaphorin 4D” value in data set [4] is given as “equivalent to that of the cyclic peptide P6”.
Turning to AVSNLPPRPHITYIE [P1], the “Ka” value in [1] stood at 20000 M⁻¹ s⁻¹. Moreover, the “Kd” value is 0.014 s⁻¹ in data set [2] and 700 nM in data set [3].
For the molecule `CC[C@H](C)[C@@H]1NC(=O)[C@H](CCC(N)=O)NC(=O)CNC(=O)[C@H]([C@@H](C)O)NC(=O)[C@H](Cc2c[nH]c3ccccc23)NC(=O)[C@H](CCCNC(=N)N)NC(=O)[C@H](C)NC(=O)[C@H](C(C)C)NC(=O)[C@H](CCCNC(=N)N)NC(=O)[C@@H]2CCCN2C(=O)[C@H](CCCNC(=N)N)NC(=O)[C@@H](Cc2c[nH]c3ccccc23)NC(=O)CSC[C@@H](C(=O)N[C@@H](CO)C(N)=O)NC(=O)[C@H](Cc2ccc(O)cc2)NC(=O)[C@H]([C@@H](C)CC)NC1=O` [P6, wRPRVARWTGQITYC] ({CH2CO}-[dW]RPRVARWTGQIIYCS-NH2; thioether N-15 (inferred); N-terminus and C-terminus assumed), the half-life in data set [5] was 3 to 6 h.
Regarding wRPRVARWTGQITYC [P6], the “Ka” value in data set [1] was found to be 3.46e+06 M⁻¹ s⁻¹. The “Kd” value turned out to be 0.012 s⁻¹ in data set [2], 3.5 nM in data set [3], 3.81 nM in data set [7] and 3.34 nM in data set [8]. Further, in data set [6], the “kd” value is 0.0151 s⁻¹.
As for RVRVERWTGKLI (not fully specified) [P3], the “Ka” value in data set [1] was determined as 4.27e+06 M⁻¹ s⁻¹. In addition, the “Kd” value in data set [2] came out at 0.144 s⁻¹; in data set [3], 33.7 nM.
As to “P6dPEG5: dimerized cyclic peptide P6 (FIG. 12b) ({CH2CO}-[dW]RPRVARWTGQIIYCS; thioether N-15; also: dimer: two units joined after S16 by PEG linkers)”, the “ka” value in data set [9] was found to be 1.18e+06 M⁻¹ s⁻¹. Besides, in [10], the “kd (ms^-1)” value is reported as 0.447 ms^-1.
Take “RPRAARWTGQIIY (not fully specified) [P5]”: the “Ka” value in data set [1] stood at 21000 M⁻¹ s⁻¹. In addition, the “Kd” value worked out at 0.002 s⁻¹ in [2] and 77.1 nM in data set [3].
In data set [11], {CH2CO}-[dW]NGTLSWQTYSHLCS (thioether N-14) [SEQ ID NO 39] showed a Kd of 689 nM, a koff of 0.037 s⁻¹ and a kon of 53000 M⁻¹ s⁻¹.
In data set [11], {CH2CO}-[dW]RPRVARWTGQIIYCS (thioether N-15) [SEQ ID NO 30] came in with a Kd of 3.5 nM, a koff of 0.012 s⁻¹ and a kon of 3.46e+06 M⁻¹ s⁻¹.
For the molecule {CH2CO}-[dW]NSNVLSWQTYSWYCS (thioether N-15) [SEQ ID NO 38], in [11], the Kd stood at 275 nM, the koff was determined as 0.01 s⁻¹ and the kon came out at 38000 M⁻¹ s⁻¹.
With {CH2CO}-[dW]LAYIERWTGQIVRCG (thioether N-15) [cyclic peptide mp6-5], the results for the Kd in data set [12] and in data set [13] were 174 nM and 507 nM, respectively.
Turning to {CH2CO}-[dW]AVSNLPPRPHITYIECS (thioether N-17) [SEQ ID NO 40], in data set [11], the Kd came to 700 nM, the koff amounted to 0.014 s⁻¹ and the on-rate (kon) was determined as 20000 M⁻¹ s⁻¹.
On the same counts, the results for {CH2CO}-[dW]RVRVERWTGKLICS (thioether N-14) [SEQ ID NO 31] are 33.7 nM, 0.144 s⁻¹ and 4.27e+06 M⁻¹ s⁻¹.
In [14], {CH2CO}-[dW]RPRVARWTGQIIYCS (thioether N-15; also: dimer, two units joined after S16 by PEG linkers, also called dimerized cyclic peptide P6) [P6dPEG5] had a Kd of 0.38 nM and a kon of 1.18e+06 M⁻¹ s⁻¹.
For {CH2CO}-[dW]RAFIERWTGRLVVCG (thioether N-15) [cyclic peptide mp6-7], the Kd in data set [12] stood at 4.58 nM; in data set [13], 126 nM.
On the same counts, the results for {CH2CO}-[dW]LGYIARWTGTVVKCG (thioether N-15) [cyclic peptide mp6-3] are 241 nM and 227 nM.
For the molecule {CH2CO}-[dW]RPRAARWTGQIIYCS (thioether N-15) [SEQ ID NO 37], in [11], the Kd came out at 77.1 nM, the koff came to 0.002 s⁻¹ and the kon is 21000 M⁻¹ s⁻¹.
